The Human Domainome abundance scans (Beltran et al. 2025)
± gives the uncertainty stated by the source.

B1: FERM and PDZ domain-containing protein 4, residues 75 to 154; numbered along this chain, Q14CM0 (parent)
chain: APRKVEMRRDPVLGFGFVAGSEKPVVVRSVTPGGPSEGKLIPGDQIVMINDEPVSAAPRERVIDLVRSCKESILLTVIQP

Variants of: B1
Assay: abundance fitness (aPCA) (normalised: wild type 0, dead -1); higher = more abundant; growth selection in yeast, the domain comes from the species named
Conditions: Homo sapiens

Point of comparison: G34Y, abundance fitness -0.867 ± 0.093. Against it:
- K39V — higher, -0.06 ± 0.022
- K39F — higher, -0.036 ± 0.038
- K39E — higher, -0.135 ± 0.027
- K39W — higher, -0.145 ± 0.025
- K39Y — higher, -0.068 ± 0.035
- K39P — higher, -0.679 ± 0.04
- K39R — higher, -0.03 ± 0.02
- G34E — within error, -0.999 ± 0.065
- G34W — lower, -1.1 ± 0.063
- G34A — higher, -0.157 ± 0.025
- G34H — higher, -0.543 ± 0.077
- G34S — higher, -0.001 ± 0.025
- G34L — higher, -0.595 ± 0.032
- G34Q — within error, -0.802 ± 0.054
- G34F — within error, -0.765 ± 0.081
- G34P — within error, -0.92 ± 0.058
- G34C — higher, -0.552 ± 0.041
- G34D — within error, -0.84 ± 0.061
- G34V — within error, -0.962 ± 0.042
- G34T — higher, -0.066 ± 0.03
- G34N — within error, -1.07 ± 0.13
- G34R — within error, -0.954 ± 0.039
- G34K — within error, -1.02 ± 0.084
- G34M — higher, -0.692 ± 0.051
- G34I — within error, -0.957 ± 0.13
- G43C — higher, -0.252 ± 0.034
- G43P — within error, -0.958 ± 0.051
- G43S — higher, -0.262 ± 0.025
- G43Q — higher, -0.227 ± 0.03
- G43V — within error, -0.991 ± 0.04
- G43T — higher, -0.424 ± 0.031
- G43M — higher, -0.175 ± 0.028
- G43E — higher, -0.18 ± 0.027
- G43Y — higher, -0.246 ± 0.044
- G43N — higher, -0.131 ± 0.041
- G43H — higher, -0.204 ± 0.043
- G43F — higher, -0.256 ± 0.038
- G43R — higher, -0.248 ± 0.021
- G43W — higher, -0.402 ± 0.026
- G43I — within error, -1.03 ± 0.14
- G43L — higher, -0.284 ± 0.024
- G43D — higher, -0.108 ± 0.035
- G33T — higher, -0.157 ± 0.031
- G33I — higher, -0.332 ± 0.055
- G33F — higher, -0.116 ± 0.046
- G33R — higher, -0.104 ± 0.022
- G33D — higher, -0.024 ± 0.039
- G33K — higher, -0.064 ± 0.033
- G33H — higher, -0.101 ± 0.045
- G33M — higher, -0.124 ± 0.033
- G33W — higher, -0.228 ± 0.029
- G33E — higher, -0.112 ± 0.03
- G33N — higher, -0.089 ± 0.048
- G33L — higher, -0.104 ± 0.024
- G33Q — higher, -0.122 ± 0.034
- G33S — higher, -0.088 ± 0.025
- G33P — within error, -0.871 ± 0.055
- G33V — higher, -0.328 ± 0.027
- G33A — higher, -0.055 ± 0.025
- P32M — higher, -0.039 ± 0.031
- P32G — higher, -0.098 ± 0.028
- P32W — higher, -0.247 ± 0.037
- P32E — higher, -0.037 ± 0.034
- P32R — higher, -0.05 ± 0.024
- P32Q — higher, -0.018 ± 0.03
- P32Y — higher, -0.136 ± 0.031
- P32T — higher, -0.036 ± 0.026
- P32I — higher, -0.08 ± 0.031
- P32K — higher, -0.027 ± 0.029
- P32V — higher, -0.051 ± 0.025
- P32A — higher, -0.029 ± 0.026
- P32H — higher, -0.046 ± 0.028
- P32F — higher, -0.206 ± 0.033
- P32S — higher, -0.032 ± 0.024
- P32D — higher, -0.075 ± 0.032
- P32L — higher, -0.083 ± 0.023
- P32N — higher, -0.058 ± 0.029
- D44M — higher, -0.186 ± 0.029
- D44K — within error, -1.01 ± 0.069
- D44F — within error, -0.957 ± 0.093
- D44R — lower, -1.01 ± 0.037
- D44W — within error, -0.817 ± 0.037
- D44S — higher, -0.264 ± 0.024
- D44H — higher, -0.306 ± 0.079
- D44E — higher, -0.173 ± 0.025
- D44Q — higher, -0.369 ± 0.033
- D44A — higher, -0.221 ± 0.023
- D44G — higher, -0.73 ± 0.026
- D44Y — higher, -0.697 ± 0.052
- D44N — higher, -0.418 ± 0.041
- D44C — higher, -0.289 ± 0.033
- D44P — within error, -0.937 ± 0.058
- I49R — within error, -0.868 ± 0.031
- I49Q — within error, -0.941 ± 0.059
- I49D — within error, -0.846 ± 0.07
- I49G — within error, -0.887 ± 0.034
- I49F — higher, -0.476 ± 0.042
- I49A — higher, -0.581 ± 0.03
- I49C — higher, -0.267 ± 0.031
- I49T — higher, -0.708 ± 0.042
- I49S — within error, -0.929 ± 0.042
- I49Y — within error, -0.855 ± 0.076
- I49N — within error, -0.847 ± 0.083
- I49H — higher, -0.676 ± 0.069
- I49V — higher, 0.006 ± 0.023
- I49M — higher, -0.529 ± 0.034
- I49W — within error, -0.779 ± 0.036
- I49P — within error, -0.928 ± 0.056
- I49L — higher, -0.111 ± 0.023
- I49E — within error, -0.894 ± 0.048
- S36H — within error, -0.741 ± 0.074
- S36A — higher, 0.032 ± 0.023
- S36G — higher, -0.05 ± 0.022
- S36K — lower, -1.1 ± 0.087
- S36F — within error, -0.742 ± 0.067
- S36T — higher, -0.477 ± 0.031
- S36Y — within error, -0.927 ± 0.096
- S36Q — within error, -0.81 ± 0.052
- S36R — lower, -1.07 ± 0.042
- S36L — the same, -0.867 ± 0.041
- S36D — within error, -0.826 ± 0.072
- S36N — higher, -0.606 ± 0.062
- S36E — within error, -0.866 ± 0.05
- S36M — higher, -0.567 ± 0.041
- S36C — higher, -0.051 ± 0.032
- S36V — higher, -0.668 ± 0.033
- V30P — within error, -0.864 ± 0.055
- V30L — higher, -0.115 ± 0.024
- V30K — within error, -0.87 ± 0.056
- V30H — within error, -0.967 ± 0.1
- V30W — within error, -0.756 ± 0.037
- V30I — higher, -0.081 ± 0.035
- V30M — higher, -0.335 ± 0.035
- V30Y — higher, -0.521 ± 0.049
- V30T — higher, -0.089 ± 0.029
- V30F — higher, -0.416 ± 0.051
- V30R — within error, -0.914 ± 0.031
- V30Q — within error, -0.801 ± 0.052
- V30S — within error, -0.743 ± 0.035
- I46M — higher, -0.293 ± 0.16
- I46L — higher, -0.051 ± 0.2
- I46N — within error, -0.679 ± 0.31
- I46F — higher, -0.255 ± 0.21
- I46P — within error, -0.611 ± 0.37
- I46T — higher, -0.113 ± 0.17
- I46V — higher, -0.014 ± 0.098
- I46S — higher, 0.073 ± 0.36
- L40Y — within error, -1.02 ± 0.12
- L40G — lower, -1.01 ± 0.034
- L40F — within error, -0.8 ± 0.069
- L40H — within error, -1.07 ± 0.12
- L40I — higher, -0.125 ± 0.045
- L40A — within error, -0.871 ± 0.039
- L40P — within error, -0.928 ± 0.059
- L40S — within error, -0.87 ± 0.037
- L40W — lower, -1.07 ± 0.046
- L40D — within error, -0.965 ± 0.079
- L40E — within error, -0.989 ± 0.054
- L40M — higher, -0.19 ± 0.029
- L40R — within error, -0.978 ± 0.035
- L40N — within error, -0.94 ± 0.087
- L40V — higher, -0.156 ± 0.022
- L40T — within error, -0.846 ± 0.055
- N50D — higher, -0.035 ± 0.032
- N50C — higher, -0.2 ± 0.035
- N50A — higher, -0.143 ± 0.023
